Assay results: patent US20250313621A1 (NXERA PHARMA UK, published 2025)

T1: Human PAR2 StaR incorporated into nanodiscs (construct not stated) (human, UniProt P55085 37-377, limits assumed)
T1 construct: also called nanodisc-embedded StaR
T1 sequence: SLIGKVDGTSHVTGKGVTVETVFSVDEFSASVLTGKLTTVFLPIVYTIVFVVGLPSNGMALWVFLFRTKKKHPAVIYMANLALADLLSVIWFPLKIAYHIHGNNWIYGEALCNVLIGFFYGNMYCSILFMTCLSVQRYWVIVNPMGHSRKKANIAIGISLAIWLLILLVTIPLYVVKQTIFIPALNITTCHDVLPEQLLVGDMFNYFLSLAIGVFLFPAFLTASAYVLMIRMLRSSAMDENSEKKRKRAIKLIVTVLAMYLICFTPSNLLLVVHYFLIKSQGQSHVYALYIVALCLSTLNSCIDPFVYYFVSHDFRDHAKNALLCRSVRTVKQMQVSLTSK

T2: Wildtype human PAR2 expressed on cells (human, UniProt P55085 37-397)
T2 construct: also called huPAR2; WT FL-huPAR2
T2 sequence: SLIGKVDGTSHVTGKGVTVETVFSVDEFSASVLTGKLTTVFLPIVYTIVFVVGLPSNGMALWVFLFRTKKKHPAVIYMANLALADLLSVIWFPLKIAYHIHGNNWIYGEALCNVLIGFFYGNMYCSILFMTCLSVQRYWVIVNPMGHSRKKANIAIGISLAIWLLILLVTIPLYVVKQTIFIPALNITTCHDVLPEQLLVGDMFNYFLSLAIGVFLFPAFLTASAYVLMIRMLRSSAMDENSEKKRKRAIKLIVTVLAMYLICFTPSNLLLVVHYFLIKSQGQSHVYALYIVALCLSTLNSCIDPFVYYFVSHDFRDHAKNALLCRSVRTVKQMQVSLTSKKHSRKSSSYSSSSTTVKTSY


How the values were obtained:
[1] = target: T1, Human PAR2 StaR incorporated into …; experiment: SPR Biacore; human PAR2 StaR incorporated into nanodiscs
[2] = target: T2, Wildtype human PAR2 expressed on cells; experiment: KinExA, apparent KD; IgG titrated with BacMam infected HEK-293F cells expressing wild-type full-length human PAR2
Procedure: (§1) For the determination of apparent KD using “native” PAR2 (i.e. PAR2 expressed at the cell surface) KinExA methodology was applied to evaluate a subset of lead clones, namely Y022870 and Y02283. […] The cells were titrated in incubation buffer (D-PBS from Gibco, 0.5% (w/v) BSA, 0.02% (v/v) Sodium azide). The experiment consisted of two titrations with a low and a high fixed IgG concentration. In both titration experiments (stoichiometry- and affinity-controlled conditions), the maximum amount of cells had to contain a high enough effective ligand concentration to completely saturate the IgG. The mixtures of IgG and cells were incubated at room temperature overnight under very gentle agitation to allow for equilibrium formation. Subsequently, the formed cell-antibody complex was removed by centrifugation. The free IgG amounts of the supernatants were determined with goat anti-human F(ab′)₂ fragment specific antibody (Jackson ImmunoResearch, #109-005-097) coated on PMMA (Polymethylmethacrylat) beads and fluorescence detection with anti-human F(ab′)₂ fragment specific Alexa Fluor 647 antibody (Jackson ImmunoResearch, #109-605-097). […] The recorded titration curves were analyzed with KinExA Pro software 4.1.11 using the n-curve analyse tool by applying the “Equilibrium, whole cell” model. […] Values are in line with SPR determined using PAR2 nanodiscs (210 and 140 pM, respectively).

[3] = target: T2, Wildtype human PAR2 expressed on cells; experiment: KinExA, whole cell equilibrium, HEK-293F cells expressing WT full-length human PAR2 titrated against two fixed IgG concentrations, apparent KD; sheet also prints Expression Level: 7.951e+006 receptors/cell, Error: 2.06 %
Procedure: as §1

[4] = target: T2, Wildtype human PAR2 expressed on cells; experiment: KinExA, whole cell equilibrium, HEK-293F cells expressing WT full-length human PAR2 titrated against two fixed IgG concentrations, apparent KD; sheet also prints Expression Level: 2.518e+006 receptors/cell, Error: 2.56 %
Procedure: as §1

Row | Kd [1] [nM] | koff [1] [s⁻¹] | kon [1] [M⁻¹ s⁻¹] | Kd [2] [nM] | Kd [3] [nM] | Kd [4] [nM] | Binder
1 | 2.7 | 0.00025 | 93000 | ~0.37 | 0.373 | – | Y022870 (antibody, human IgG1, lambda, V domains shown, also called Y22870) VH: EVQLLESGGGLVQPGGSLRLSCAASGFSFSRYAITWVRQAPGKGLEWVSTISALGLETYYAESVRGRFTISRDNSKNTLYLQMNSLRAEDTAVYYCARGFHYTHSGKRYYYPFDIWGQGTLVTVSS VL: QSALTQPASVSGSPGQSITISCTGTSSDVGSYNLVSWYQQHPGKAPKLMIYEGSKRPSGVSNRFSGSKSGNTASLTISGLQAEDEADYYCSQYATFIAFAVFGGGTKLTVLG
2 | 2.8 | 0.00021 | 73000 | – | – | – | Y022877 (antibody, human IgG1, lambda, V domains shown, also called Y22877) VH: EVQLLESGGGLVQPGGSLRLSCAASGFTFSRYAMTWVRQAPGKGLEWVSTISGLGQEAYYAGSVKGRFTISRDNSKNTLYLQMNSLRAEDTAVYYCARGFHYTHSGKRYYYPFDIWGQGTLVTVSS VL: QSALTQPASVSGSPGQSITISCTGTSSDVGSYNLVSWYQQHPGKAPKLMIYEGSKRPSGVSNRFSGSKSGNTASLTISGLQAEDEADYYCSQYATFIAFAVFGGGTKLTVLG
3 | – | – | – | ~0.26 | – | 0.259 | Y022883 (antibody, human IgG1, lambda, V domains shown, also called Y22883; Y02283) VH: EVQLLESGGGLVQPGGSLRLSCAASGFSFTRYAISWVRQAPGKGLEWVSVISGHGSEANYAESVKGRFTISRDNSKNTLYLQMNSLRAEDTAVYYCARGFHYTHSGKRYYYPFDIWGQGTLVTVSS VL: QSALTQPASVSGSPGQSITISCTGTSSDVGSYNLVSWYQQHPGKAPKLMIYEGSKRPSGVSNRFSGSKSGNTASLTISGLQAEDEADYYCSQYATFIAFAVFGGGTKLTVLG
